In the supplement of paper PMC10567573:

B1: HMOX1 (parent)
chain: YHIYVALEEEIERNKESPVFAPVY
B2: IFRG15 (parent)
chain: INRADYCPECYPDNPANRSLVLPW

Variants of: B1
Experiment: protein stability index of a GFP-peptide fusion (GPS, HEK-293T) (PSI 1-6); higher = more stable
Conditions: c terminus: a fixed tail appended
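Further: lentivirally expressed fusions sorted by FACS into six bins by GFP to DsRed ratio, PSI derived from sequencing read proportions per bin multiplied by bin number.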

Protein stability index of substitutions, site by site:
A21: I 1.87, K 2.8, L 1.58, M 1.99, N 2.31, P 2.06, Q 2.41, R 2.2, S 2.02, T 2, V 1.76, W 1.7, Y 1.49
P22: A 2.12, C 1.54, D 1.8, E 2.52, F 2.91, G 1.76, H 1.98, I 2.61, K 2.14, M 3.18, N 1.68, Q 1.98, R 2.06, S 1.55, T 2.1, V 3.15, W 1.87, Y 1.77
V23: A 2.27, C 2.12, D 2.69, E 2.63, F 1.78, G 2.1, H 1.84, I 1.87, K 2.09, L 1.77, M 1.89, N 1.78, P 2.69, Q 1.99, R 2.87, S 1.85, T 1.83, W 2.65, Y 1.64
Y24: A 3.11, C 2.23, D 3.35, E 3.33, F 1.78, G 2.83, H 2.48, I 2.49, K 2.69, L 2.31, M 2.22, N 2.9, P 3.47, Q 3.09, R 3.01, S 2.84, T 2.96, V 2.51, W 1.98

Variants of: B2
Experiment: as above
Conditions: c terminus: a fixed tail appended

Protein stability index of substitutions, site by site:
I1: A 2.15, C 2.53, D 2.75, E 1.93, F 2.34, G 2.05, H 2.44, K 2.42, L 2.29, M 2.38, N 3.18, P 2.21, Q 2.26, R 2.05, S 2.14, T 1.74, V 1.92, W 1.33, Y 1.49
N2: A 1.65, C 3.06, D 2.64, E 2.11, F 1.55, G 2.15, H 1.84, I 1.7, K 2.29, L 1.79, M 1.88, P 2.92, Q 2.03, R 1.26, S 1.82, T 1.78, V 1.91, W 1.61, Y 1.7
R3: A 2.42, C 1.66, D 2.59, E 2.42, F 2.12, G 2.65, H 2.39, I 1.54, K 2.39, L 2.14, M 1.91, N 2.36, P 2.42, Q 2.32, S 2.2, T 2.71, V 1.74, W 1.35, Y 1.9
A4: C 1.78, D 1.95, E 2.48, F 1.93, G 2.55, H 1.65, I 2.66, K 2.16, L 2.09, M 1.51, N 2.2, P 2.47, Q 2.28, R 1.83, S 2.28, T 2.1, V 1.83, W 1.68, Y 2.63
D5: A 1.78, C 1.92, E 1.96, F 2.03, G 1.91, H 2.09, I 1.99, K 1.4, L 1.6, M 1.95, N 1.88, P 1.91, Q 1.93, R 2.39, S 2.07, T 1.55, V 2.21, W 1.91, Y 1.15
Y6: A 2.62, C 2.67, D 2.9, E 2.52, F 2.22, G 2.65, H 3.04, I 2.24, K 2.66, L 2.05, M 2.21, N 2.86, P 3.33, Q 3.12, R 2.44, S 3.25, T 3.14, V 2.46, W 2.3
C7: A 2.58, D 3.72, E 2.5, F 2.28, G 2.62, H 2.13, I 2.27, K 2.95, L 1.97, M 2.08, N 2.81, P 2.42, Q 2.74, R 2.73, S 3.23, T 2.68, V 2.34, W 1.43, Y 2.41
P8: A 1.27, C 2.07, D 2.64, E 2.34, F 2.1, G 2.67, H 2.3, I 1.5, K 2.47, L 1.85, M 1.71, N 1.88, Q 2.48, R 1.99, S 2.46, T 1.82, V 1.95, W 2.02, Y 2.48
E9: A 2.71, C 2.4, D 2.39, F 1.78, G 1.66, H 1.63, I 1.38, K 1.63, L 2.07, M 1.82, N 1.92, P 3.15, Q 1.62, R 2.02, S 1.86, T 1.86, V 3.07, W 1.58, Y 1.31
C10: A 2.41, D 3.65, E 2.83, F 2.66, G 2.81, H 2.6, I 1.74, K 2.59, L 2.31, M 2.83, N 2.62, P 3.17, Q 3.09, R 2.29, S 2.92, T 2.35, V 2.32, W 2.07, Y 2.31
Y11: A 1.96, C 3.16, D 3.28, E 2.73, F 2.2, G 2.84, H 2.22, I 2.25, K 2.27, L 1.83, M 2.15, N 2.23, P 3.15, Q 2.58, R 2.72, S 2.69, T 2.32, V 2.8, W 2.1
P12: A 2.04, C 1.69, D 2.7, E 2.46, F 1.78, G 2.69, H 1.91, I 1.56, K 2.1, L 1.9, M 2.08, N 1.66, Q 2.11, R 2.05, S 2.03, T 1.98, V 1.84, W 1.72, Y 2.26
D13: A 1.94, C 1.97, E 1.86, F 1.56, G 1.98, H 2.07, I 1.71, K 1.68, L 2.53, M 2.25, N 2.08, P 2.11, Q 2.28, R 1.69, S 1.82, T 2.37, V 1.63, W 2.18, Y 1.57
N14: A 2.31, C 2.2, D 2.52, E 2.64, F 1.71, G 2.83, H 2.52, I 1.53, K 2.25, L 1.67, M 1.68, P 2.28, Q 1.86, R 2, S 2.72, T 1.6, V 2.04, W 1.03
